The DeepSol protein solubility set

assay: soluble on expression in E. coli; label from the status in PepcDB or PDB records

Sequence	soluble on expression in E. coli
SDSFWEPGNYKRTTKRIEDGYKLCNDLQQLIQERADIEKGYAKSLRTWSKKWGELIEKGPEYGTTEAAWKGVLTESERISDVHMKIKDNLCNDVNSQIKTWQKENYHHTLMQIKERKDLEDLFKKAQKPWAKLLAKVEKAKADYHSACKTERSATNQERNANADSSLSPDQVKKMHDRVQKTKDQVQKCREKYEQAIAEITKYNSVYIEDMTSVFEKCQTFEKTRLQFFKEILFNVHSCLDLTKVQSLPQIYEEFSHTINNADQQKDLKWWSNNHGINMAMNWPSFVEYT	soluble
SDTMKVETIGKEIIKPSATTPTDLSTLQLSIMDILMPPVYAVAFLFYTKDDLISQEQTSHTLKTSLSEILTKFHPLAGRVNGVTIKSTDEGAVFVEARVDNCDLSGFLRSPDTESLKQLLPVDDEPAPTWPLLLVKATYFRCGGMAIGLCISHRLADAASLSIFLQAWAATARGESDLVASPDFCSTKLYPAANEAIKIPGEVVNRTSVTKRFVFVASKIEELRNKVASDVVPRPTRVQSVTSLIWKCVVTASTDTIREKALFQPANLRTKIPSLLSENQIGNLLFNSLILDGKAGMDIVETVKELQKRAEDLSGLVQDEEGSSMTIGWRLFGEIINSKFNREDHDMHSVTSWCKIPLYDACFGWGSPVWVAGSVSPNLDYVTVLIDSKDGQGIEAWVTLPQENMLLLEQSTELLAFASPNPSVLI	soluble
SDYDADELAEALQPVIVNTPHLKKPIGLIGAKGEFHPVLLAETSFPVQKKLTLKQAKGDFLIGVYEGDHHIEEKTLEPIPKEENAEEDDESEWSDDEPEVVREKLYTLGTKLMELGIKNANGVEIIFNINKDGALRVTARDLKTGNAVKGEL	not soluble
SEERLNYIVFNQNISNMANKEVRQALSYALNRNEMIESAYGKEGSVPAKSILVPEADFYTEEGVEGYDQDTNKAKDLLDKSGVKIDKLKIGYNTGRFGHKNYALVAQQELKKIGIEAEIVPYESKAFFNILFSNSTECDMYVNGYAWGLEPNPYRGMFETGQYCNQTKYSNAEIDALWEKGFTELNKEKREEIYKQIQQDISKDAPIYTIDYEQNLMAAQKNL	not soluble
SEESVKPVPKHANHRRSSVRSSLYGDVRDLWSTATMSTANVSVSDVCEDFDEEGKSVRNRIRKYSQTISIRDSLNLEPEEIQQQARRELELCHGRSLEHGEDHEESETSLASSTSESLIFSLWKPHRTYWTEQQNRLPLPLMELMETEVLDILKKALITYRSTIGRNHFMTKELQGYIEGIRKRRNKRLYFLDQ	soluble
SEFKVTVCFGRTRVDVPCGDGRMKVFSLIQQAVTRYRKAVAKDPNYWIQVHRLEHGDGGILDLDDILCDVADDKDRLVAVFDEQD	soluble
SEKNPPDDTGPVHVPLGHIVANEKWRGSQLAQEMQGKIKLIFEDGLTPDFYLSNRCCILYVTEADLVAGNGYRKRLVRVRNSNNLKGIVVVEKTRMSEQYFPALQKFTVLDLGMVLLPVASQMEASCLVIQLVQEQTKEPSKNPLLGKKRALLLSEPSLLRTVQQIPGVGKVKAPLLLQKFPSIQQLSNASIGELEQVVGQAVAQQIHAFFTQPR	soluble
SEPIAAAPQIPVSEWDNPGIKLQVAPIPRICGMPEVQDMKLITPVRRSARIERTVARYPEMLQEHDVVVASLNELLEVDKTECFIFRENEALPVTLGFEVLES	not soluble
SEWNLRRMESELRQINPDLLQPSKSFKKPSSGTITINVGGYLYAAQRHTLAKHPGSLLEEMVTGKKPVLHVDSMGNTFIDRDGPIFRHILNFLRLGELVLPEDFKETELLRREANFYRLSELAQALQDWEQQQATQREPAFLEVTDSHERSQGLRVYCSDNTFIEKVKNRLVQISKSRLDGFPEEFEVSSNIIQFRHFIKSEQGSRLVLKQDSTFLCTLECLKLETVMLALKGGFRLITSLDSSRGSVVQCEALHFVK	soluble
SFSWLLRLCQKENGDEGDTRPTKKEEGILSHEKGRRKSFWRRHRSARNTSTQNSNITNQISNINKVRELKLDMRKISNDMEEMCGILNLYMYEDLNYRMNTEFNIIKSQHEKTMLDMDKMTQSIIASMKFSEELLKDNYSYSIKQKRGSVRRPARTCVSQVPRSSRCDHEIPQISDPDGSLHSSWDLGSIVSSEPD	soluble
SGKLHSKPAAVCKRRESPEGDSFAVSAAWARKGIEEWIGRQRCPGGVSGPRQLRLAGTIGRSTRELVGDVLRDTLSEEEEDDFRLEVALPPEKTDGLGSGDEKKMERVSEPCPGSKKQLKFEELQCDVSMEEDSRQEWTFTLYDFDNNGKVTREDITSLLHTIYEVVDSSVNHSPTSSKMLRVKLTVAPDGSQSKRSVLVNQADLQSARPRAETKPTEDLRSWEKKQRAPLRFQGDSRLEQSGCYHHCVDENIERRNHYLDLAGIENYTSQFGPGSPSVAQKSELPPRTSNPTRSRSHEPEAIHIPHRKPQGVDPASFHFLDTPIAKVSELQQRLRGTQDGSKHFVRSPKAQGKSVGVGHVARGARNKPPLGPAIPAVSPSAHLAASPALLPSLAPLGHKKHKHRAKESQQGCRGLQAPLASGGPVLGREHLRELPALVVYESQAGQPVQRHEHHHHHEHHHHYHHFYQT	not soluble
SGKVILITGASRGIGLQLVKTVIEEDDECIVYGVARTEAGLQSLQREYGADKFVYRVLDITDRSRMEALVEEIRQKHGKLDGIVANAGMLEPVKSISQSNSEHDIKQWERLFDVNFFSIVSLVALCLPLLKSSPFVGNIVFVSSGASVKPYNGWSAYGCSKAALNHFAMDIASEEPSDKVRAVCIAPGVVDTQMQKDIRETLGPQGMTPKALERFTQLYKTSSLLDPKVPAAVLAQLVLKGIPDSLNGQYLRYNDERLGPVQG	soluble
SGLRKMAQPSGLVEPCIVRVSYGNNVLNGLWLGDEVICPRHVIASDTTRVINYENEMSSVRLHNFSVSKNNVFLGVVSARYKGVNLVLKVNQVNPNTPEHKFKSIKAGESFNILACYEGCPGSVYGVNMRSQGTIKGSFIAGTCGSVGYVLENGILYFVYMHHLELGNGSHVGSNFEGEMYGGYEDQPSMQLEGTNVMSSDNVVAFLYAALINGERWFVTNTSMSLESYNTWAKTNSFTELSSTDAFSMLAAKTGQSVEKLLDSIVRLNKGFGGRTILSYGSLCDEFTPTEVIRQMYGVNLQ	soluble
SGSCCSCPDKDTVPDNHRNKFKVINVDDDGNELGSGIMELTDTELILYTRKRDSVKWHYLCLRRYGYDSNLFSFESGRRCQTGQGIFAFKCARAEELFNMLQEIMQNNSINVVEEPVVERNNHQTELEVPRTPRTPTTPGFAAQNLPNGYPRYPSFGDASSHPSSRHPSVGSARLPSVGEESTHPLLVAEEQVHTYVNTTGVQEERKNRTSVHVPLEARVSNAESSTPKEEPSSIEDRDPQILLEPEGVKFVLGPTPVQKQLMEKEKLEQLGRDQVSGSGANNTEWDTGYDSDERRDAPSVNKLVYENINGLSIPSASGVRRGRLTSTSTSDTQNINNSAQRRTALLNYENLPSLPPVWEARKLSRDEDDNLGPKTPSLNGYHNNLDPMHNYVNTENVTVPASAHKIEYSRRRDCTPTVFNFDIRRPSLEHRQLNYIQVDLEGGSDSDNPQTPKTPTTPLPQTPTRRTELYAVIDIERTAAMSNLQKALPRDDGTSRKTRHNSTDLPMLAWK	soluble
SGTVHARSLEPLPSSGPDFGGLGEEAEFVEVEPEAKQEILENKDVVVQHVHFDGLGRTKDDIIICEIGDVFKAKNLIEVMRKSHEAREKLLRLGIFRQVDVLIDTCQGDDALPNGLDVTFEVTELRRLTGSYNTMVGNNEGSMVLGLKLPNLLGRAEKVTFQFSYGTKETSYGLSFFKPRPGNFERNFSVNLYKVTGQFPWSSLRETDRGMSAEYSFPIWKTSHTVKWEGVWRELGCLSRTASFAVRKESGHSLKSSLSHAMVIDSRNSSILPRRGALLKVNQELAGYTGGDVSFIKEDFELQLNKQLIFDSVFSASFWGGMLVPIGDKPSSIADRFYLGGPTSVRGFSMHSIGPQSEGDYLGGEAYWAGGLHLYTPLPFRPGQGGFGELFRTHFFLNAGNLCNLNYGEGPKAHIRKLAECIRWSYGAGIVLRLGNIARLELNYCVPMGVQTGDRICDGVQFGAGIRFL	soluble
SHLHPLHKNTTGYDLRHLFIGSEGTLGIITAATLKLFANPLDKATAWVGIPDIESAVRLLTETQAHFAERLCSFELIGRFAAELSSEFSKLPLPTHSEWHILLELTDSLPDSNLDDRLVEFLYKKGFTDSVLAQSEQERIHMWALRENISASQRKLGTSIKHDIAVPIGRVADFVRRCAKDLEQNFKGIQIVCFGHLGDGSLHYNTFLPEILSNEVYRYENDINSTVYRNVLACNGTIAAEHGIGIIKKQWLDKVRTPAEIALMKSIKQHLDPYNIMNPGKLLP	not soluble
